Data as given in patent US20230227539A1 (HIFIBIO HK, published 2023).
Substitutions are numbered along the chain they refer to.

B1: Ab-6 (antibody, V domains shown)
VH: QVQLVQSGAEVKKPGASVKVSCKVSGYTLTELSMHWVRQAPGKGLEWMGGFDPEDGETIYAQKFQGRVTMTEDTSTDTAYMELSSLRSEDTAVYYCATGHQLLFYNWFDPWGQGTLVTVSS
VL: QSALTQPPSASGSPGQSVTISCTGTSSDVGGYNYVSWYQQHPGKAPKLMIYEVSKRPSGVPDRFSGSKSGNTASLTVSGLQAEDEADYYCSSYAGSNNLVFGGGTKLTVLG
B2: Ab-7 (antibody, V domains shown)
VH: EVQLVESGGGLVKPGGSLRLSCAASGFAFSSYTMNWVRQAPGKGLAWVSSISSSSDYIFYADSVKGRCTISRDNAKNSLSLQMNSLRAEDTAVYYCARGSNTAWGGVPDAFDFWGLGTVVTVSS
VL: B1 VL with G31R, A82T
B3: Ab-4 (IgG1) (antibody, V domains shown)
VH: QITLKESGPTLVKPTQTLTLTCTFSGFSLSTSGVGVGWIRQPPGKALEWLALIYWDDDKRYSPSLKSRLTITKDTSKNQVVLTMTNMAPVDTATYYCAHRLSNFWSGYYTGWGQGTLVTVSS
VL: not shown
B4: Ab-2 IgG1 (antibody, V domains shown)
VH: EVQLVESGGGLIQPGGSLRLSCAASGFIVSSNYMSWVRQAPGKGLEWVSIIYSGGSTFYADSVKGRFTISRDNSKNTLYLQMNSLRVEDTAVYYCARDLQELGSLDYWGQGTLVTVSS
VL: DIQMTQSPSSVSASVGDRVTITCRASQGISSWLAWYQQKPGKAPKLLIYAASSLQSGVPSRFSGSGSGTDFTLTISSLQPEDFATYYCQEANSFPYTFGQGTKLEIKR
notes: also called 2A2A; C1S5-2A2A
B5: Ab-8 (antibody, V domains shown)
VH: B4 VH with S25P
VL: B4 VL
B6: Ab-9 (antibody, V domains shown)
VH: B4 VH with Y107C
VL: B4 VL
B7: Ab-3 (IgG1) (antibody, V domains shown)
VH: QLQLQESGPGLVKPSETLSLTCTVSGGSISSTIYYWGWIRQPPGKGLEWIGSIYYSGNAYYNPSLKSRVTISVDTSKNQFSLMLNSVTASDTAVYYCATPHTRWGPDYWGQGTLVTVSS
VL: NFMLTQPHSVSASPGKTVTVSCTRSSGSIASNYVLWYQQRPGSAPTTVIYEDDQRPSGVPDRFSASIDSSSNSASLTISGLKTEDEADYYCQSYDGDNLVFGGGTKLTVLG
B8: Ab-1 (IgG1) (antibody, V domains shown)
VH: B7 VH with T32S, M83K, S90A
VL: B7 VL

What was measured:
[1] = target: T1, SARS-CoV-2 Spike S1+S2 ECD, his Tag protein (SARS-CoV-2, UniProt P0DTC2 14-1213); assay: ELISA (FIG. 6)
T1 construct: extracellular domain

[2] = target: SARS-CoV-2 Spike S1, mFc tag spike protein (SARS-CoV-2, UniProt P0DTC2 16-685)
[3] = target: T2, SARS-CoV-2 S1 protein (S1 fragment of the S protein) (SARS-CoV-2, UniProt P0DTC2 16-685); assay: SPR negative control; as indicated by the domain ELISA
T2 construct: domain: S1

[4] = target: T3, SARS-CoV-2 S protein on pseudotyped virus (wild type) (SARS-CoV-2, UniProt P0DTC2 14-1273); assay: cell-based or functional assay
[5] = target: T1, SARS-CoV-2 Spike S1+S2 ECD, his Tag …; assay: ELISA, coated S1+S2 ECD His
[6] = target: T1, SARS-CoV-2 Spike S1+S2 ECD, his Tag …; assay: binding to full-length S protein
[7] = target: T3, SARS-CoV-2 S protein on pseudotyped …; assay: cell-based or functional assay; remark: listed apart in the source
[8] = target: T1, SARS-CoV-2 Spike S1+S2 ECD, his Tag …; assay: ELISA on His-tagged S1+S2 ECD (FIG. 7)

Binder	binding result [1]	IC50 [2] [nM]	binding result [3]	Pseudo-virus neutralization IC50 [4] [nM]	Pseudo-virus neutralization IC90 [4] [nM]	EC50 [5] [nM]	EC90 [5] [nM]	EC50 [6] [nM]	Pseudo-virus neutralization (Test 1) IC80 [7] [nM]	Pseudo-virus neutralization (Test 2) IC50 [7] [nM]	Pseudo-virus neutralization (Test 2) IC80 [7] [nM]	EC50 [8] [nM]
B1	binds	–	–	–	–	–	–	–	–	–	–	–
B2	binds	–	–	–	–	–	–	–	–	–	–	–
B3	–	> 300	no binding	> 300	> 300	14.2	328	–	–	–	–	–
B4	–	3.78	–	0.53	4.76	0.5	2.56	0.55	2.11	0.32	1.29	0.021
B5	binds	–	–	–	–	–	–	–	–	–	–	–
B6	binds	–	–	–	–	–	–	–	–	–	–	–
B7	–	10.6	–	5.8	52.2	0.5	9.36	–	23.2	2.61	10.4	–
B8	–	11.1	–	4.07	36.6	0.53	6.03	–	16.3	1.62	6.48	–
